This is an account of results in paper PMC6986764, “RNA binding protein FXR1-miR301a-3p axis contributes to p21WAF1 degradation in oral cancer”.

The data set deals with FXR1 (rFXR1) (human, UniProt P51114 1-621). Put plainly: EMSA; 1 ug E. coli tRNA, 1.5 mM EDTA; EMSA: 0.5 pmol 32P-miRNA in 20 ul, 20 mM Na-HEPES pH 7.0, 150 mM NaCl, 0.75 mM DTT, 1.5 mM EDTA, 10% glycerol, 1 ug E. coli tRNA, 37 C 30 min; 12% native PAGE. The settings on record: protein: recombinant, His-tag (pET28a), thrombin-cleaved in final dialysis, single strand.
Chain of FXR1 (rFXR1) (P51114 whole entry): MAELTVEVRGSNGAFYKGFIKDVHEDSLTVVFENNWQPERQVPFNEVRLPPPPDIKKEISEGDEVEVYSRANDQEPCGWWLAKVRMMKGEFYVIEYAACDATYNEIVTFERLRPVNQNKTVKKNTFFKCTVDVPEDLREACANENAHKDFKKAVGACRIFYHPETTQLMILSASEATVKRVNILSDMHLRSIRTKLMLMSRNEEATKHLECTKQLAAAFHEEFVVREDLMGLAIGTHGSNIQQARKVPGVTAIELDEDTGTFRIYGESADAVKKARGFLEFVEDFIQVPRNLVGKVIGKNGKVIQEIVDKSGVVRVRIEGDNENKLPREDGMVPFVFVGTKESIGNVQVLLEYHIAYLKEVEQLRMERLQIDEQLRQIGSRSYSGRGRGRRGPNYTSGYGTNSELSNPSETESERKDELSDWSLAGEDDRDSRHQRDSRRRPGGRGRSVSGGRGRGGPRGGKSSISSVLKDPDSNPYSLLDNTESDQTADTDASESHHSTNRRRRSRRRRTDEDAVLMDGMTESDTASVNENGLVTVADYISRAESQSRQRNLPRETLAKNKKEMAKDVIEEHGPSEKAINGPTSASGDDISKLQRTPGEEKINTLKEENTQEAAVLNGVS

B1: miR301a-3p (ssRNA)
RNA: CAGUGCAAUAGUAUUGUCAAAGC
Consider B1, for which, under “label: 5'-32P”, the binding result is listed as “binds”.

B2: miR204-5p (ssRNA)
RNA: UUCCCUUUGUCAUCCUAUGCCU
As for B2, the binding result (label: 32P) is on record as “no binding”.
